Columns and labels:
Assay in all cases: cell-based or functional assay
[1] = target: HIV-1 Env of pseudovirus 0815.v3.c3 (HIV-1)
[2] = target: HIV-1 Env of pseudovirus 1056_10_TA11_1826 (HIV-1)
[3] = target: HIV-1 Env of pseudovirus 1394C9G1(Rev-) (HIV-1)
[4] = target: HIV-1 Env of pseudovirus 191955_A11 (HIV-1)
[5] = target: HIV-1 Env of pseudovirus 249M B10 (HIV-1)
[6] = target: HIV-1 Env of pseudovirus 263-8 (HIV-1)
[7] = target: HIV-1 Env of pseudovirus 3016.v5.c45 (HIV-1)
[8] = target: HIV-1 Env of pseudovirus 3103.v3.c10 (HIV-1)
[9] = target: HIV-1 Env of pseudovirus 3301.v1.c24 (HIV-1)
[10] = target: HIV-1 Env of pseudovirus 6240_08_TA5_4622 (HIV-1)
[11] = target: HIV-1 Env of pseudovirus 6535.3 (HIV-1)
[12] = target: HIV-1 Env of pseudovirus 89-F1_2_25 (HIV-1)
[13] = target: HIV-1 Env of pseudovirus 9004SS_A3_4 (HIV-1)
[14] = target: HIV-1 Env of pseudovirus 928-28 (HIV-1)
[15] = target: HIV-1 Env of pseudovirus BJOX009000.02.4 (HIV-1)
[16] = target: HIV-1 Env of pseudovirus BJOX015000.11.5 (HIV-1)
[17] = target: HIV-1 Env of pseudovirus CAP45.2.00.G3 (HIV-1)
[18] = target: HIV-1 Env of pseudovirus CNE17 (HIV-1)
[19] = target: HIV-1 Env of pseudovirus CNE53 (HIV-1)
[20] = target: HIV-1 Env of pseudovirus Ce2060_G9 (HIV-1)
[21] = target: HIV-1 Env of pseudovirus Du156.12 (HIV-1)
[22] = target: HIV-1 Env of pseudovirus Du422.1 (HIV-1)
[23] = target: HIV-1 Env of pseudovirus HIV-0013095-2.11 (HIV-1)
[24] = target: HIV-1 Env of pseudovirus HIV-001428-2.42 (HIV-1)
[25] = target: HIV-1 Env of pseudovirus PVO.4 (HIV-1)
[26] = target: HIV-1 Env of pseudovirus Q23.17 (HIV-1)
[27] = target: HIV-1 Env of pseudovirus Q461.e2 (HIV-1)
[28] = target: HIV-1 Env of pseudovirus Q769.d22 (HIV-1)
[29] = target: HIV-1 Env of pseudovirus Q842.d12 (HIV-1)
[30] = target: HIV-1 Env of pseudovirus R2184.c04 (HIV-1)
[31] = target: HIV-1 Env of pseudovirus T250-4 (HIV-1)
[32] = target: HIV-1 Env of pseudovirus T257-31 (HIV-1)
[33] = target: HIV-1 Env of pseudovirus T278-50 (HIV-1)
[34] = target: HIV-1 Env of pseudovirus TRJO4551.58 (HIV-1)
[35] = target: HIV-1 Env of pseudovirus X1193_c1 (HIV-1)
[36] = target: HIV-1 Env of pseudovirus ZM247v1(Rev-) (HIV-1)
[37] = target: HIV-1 Env of pseudovirus 191084 B7-19 (HIV-1)

Q: How did the IC50 [1] turn out when PGT121 (antibody) was run?
A: 0.025 µg/mL

Q: And the IC80 [1]?
A: 0.111 µg/mL

Q: What about the IC50 [2] of the same substance?
A: 0.004 µg/mL

Q: And the IC80 [2]?
A: 0.081 µg/mL

Q: And the IC50 [3]?
A: 0.264 µg/mL

Q: What about the IC80 [3] of the same substance?
A: 1.95 µg/mL

Q: And the IC50 [4]?
A: > 50 µg/mL

Q: And the IC80 [4]?
A: > 50 µg/mL

Q: And the IC50 [5]?
A: > 50 µg/mL

Q: What about the IC80 [5] of the same substance?
A: > 50 µg/mL

Q: And the IC50 [6]?
A: 0.648 µg/mL

Q: And the IC80 [6]?
A: 3.96 µg/mL

Q: And the IC50 [7]?
A: > 50 µg/mL

Q: What about the IC80 [7] of the same substance?
A: > 50 µg/mL

Q: What about the IC50 [8] of the same substance?
A: 0.009 µg/mL

Q: What about the IC80 [8] of the same substance?
A: 0.028 µg/mL

Q: And the IC50 [9]?
A: 0.008 µg/mL

Q: And the IC80 [9]?
A: 0.019 µg/mL

Q: What about the IC50 [10] of the same substance?
A: 0.033 µg/mL

Q: What about the IC80 [10] of the same substance?
A: 0.127 µg/mL

Q: And the IC50 [11]?
A: 0.002 µg/mL

Q: And the IC80 [11]?
A: 0.008 µg/mL

Q: What about the IC50 [12] of the same substance?
A: > 50 µg/mL

Q: And the IC80 [12]?
A: > 50 µg/mL

Q: What about the IC50 [13] of the same substance?
A: < 0.001 µg/mL

Q: What about the IC80 [13] of the same substance?
A: 0.003 µg/mL

Q: What about the IC50 [14] of the same substance?
A: 44.2 µg/mL

Q: What about the IC80 [14] of the same substance?
A: > 50 µg/mL

Q: What about the IC50 [15] of the same substance?
A: 2.86 µg/mL

Q: What about the IC80 [15] of the same substance?
A: 31.7 µg/mL

Q: And the IC50 [16]?
A: > 50 µg/mL

Q: What about the IC80 [16] of the same substance?
A: > 50 µg/mL

Q: What about the IC50 [17] of the same substance?
A: 1.63 µg/mL

Q: What about the IC80 [17] of the same substance?
A: > 50 µg/mL

Q: What about the IC50 [18] of the same substance?
A: 7.6 µg/mL

Q: What about the IC80 [18] of the same substance?
A: > 50 µg/mL

Q: What about the IC50 [19] of the same substance?
A: 0.007 µg/mL

Q: What about the IC80 [19] of the same substance?
A: 0.024 µg/mL

Q: What about the IC50 [20] of the same substance?
A: > 50 µg/mL

Q: And the IC80 [20]?
A: > 50 µg/mL

Q: What about the IC50 [21] of the same substance?
A: 0.004 µg/mL

Q: And the IC80 [21]?
A: 0.017 µg/mL

Q: And the IC50 [22]?
A: 0.039 µg/mL

Q: And the IC80 [22]?
A: 0.143 µg/mL

Q: What about the IC50 [23] of the same substance?
A: > 50 µg/mL

Q: What about the IC80 [23] of the same substance?
A: > 50 µg/mL

Q: And the IC50 [24]?
A: 0.014 µg/mL

Q: What about the IC80 [24] of the same substance?
A: 0.051 µg/mL

Q: And the IC50 [25]?
A: 0.098 µg/mL

Q: And the IC80 [25]?
A: 0.343 µg/mL

Q: And the IC50 [26]?
A: < 0.001 µg/mL

Q: What about the IC80 [26] of the same substance?
A: 0.005 µg/mL

Q: What about the IC50 [27] of the same substance?
A: > 50 µg/mL

Q: And the IC80 [27]?
A: > 50 µg/mL

Q: What about the IC50 [28] of the same substance?
A: > 50 µg/mL

Q: What about the IC80 [28] of the same substance?
A: > 50 µg/mL

Q: And the IC50 [29]?
A: 0.005 µg/mL

Q: And the IC50 [30]?
A: > 50 µg/mL

Q: And the IC80 [30]?
A: > 50 µg/mL

Q: And the IC50 [31]?
A: < 0.001 µg/mL

Q: What about the IC80 [31] of the same substance?
A: 0.005 µg/mL

Q: And the IC50 [32]?
A: > 50 µg/mL

Q: And the IC80 [32]?
A: > 50 µg/mL

Q: What about the IC50 [33] of the same substance?
A: > 50 µg/mL

Q: And the IC80 [33]?
A: > 50 µg/mL

Q: What about the IC50 [34] of the same substance?
A: 1.31 µg/mL

Q: What about the IC80 [34] of the same substance?
A: 37.9 µg/mL

Q: What about the IC80 [35] of the same substance?
A: 0.086 µg/mL

Q: And the IC50 [36]?
A: 0.028 µg/mL

Q: What about the IC80 [36] of the same substance?
A: 0.082 µg/mL

Q: What does the source list for N49P11 (antibody)?
A: IC50 [1]: 0.106 µg/mL; IC80 [1]: 0.372 µg/mL; MPI [1]: 100; IC50 [37]: 0.065 µg/mL; IC80 [37]: 0.276 µg/mL; MPI [37]: 100; IC50 [4]: 2.74 µg/mL; IC80 [4]: 15.3 µg/mL; MPI [4]: 100; IC50 [6]: 0.064 µg/mL; IC80 [6]: 0.259 µg/mL; MPI [6]: 100; IC50 [7]: 8.75 µg/mL; IC80 [7]: 21.4 µg/mL; MPI [7]: 100; IC50 [8]: 12.6 µg/mL; IC80 [8]: 26.4 µg/mL; MPI [8]: 100; IC50 [9]: 1.98 µg/mL; IC80 [9]: 15.7 µg/mL; MPI [9]: 100; IC50 [12]: 4.24 µg/mL; IC80 [12]: 16.6 µg/mL; MPI [12]: 100; IC50 [13]: 0.296 µg/mL; IC80 [13]: 3.24 µg/mL; MPI [13]: 100; IC50 [14]: 5.46 µg/mL; IC80 [14]: 25 µg/mL; MPI [14]: 100; IC50 [15]: 2.84 µg/mL; IC80 [15]: 10.6 µg/mL; MPI [15]: 100; IC50 [16]: 0.288 µg/mL; IC80 [16]: 1.28 µg/mL; MPI [16]: 100; IC50 [30]: 0.034 µg/mL; IC80 [30]: 0.12 µg/mL; MPI [30]: 100; IC50 [31]: 6.28 µg/mL; IC80 [31]: 25.6 µg/mL; MPI [31]: 100; IC50 [32]: 0.7 µg/mL; IC80 [32]: 2.9 µg/mL; MPI [32]: 100; IC50 [33]: 7.63 µg/mL; IC80 [33]: 25.1 µg/mL; MPI [33]: 100; IC50 [35]: 0.179 µg/mL; IC80 [35]: 1.09 µg/mL; MPI [35]: 100

Q: For N49P7.2 (antibody), which IC50 [1] is on record?
A: 0.023 µg/mL

Q: What about the IC80 [1] of the same substance?
A: 0.103 µg/mL

Q: And the MPI [1]?
A: 100

Q: And the IC50 [37]?
A: 0.102 µg/mL

Q: And the IC80 [37]?
A: 0.29 µg/mL

Q: What about the MPI [37] of the same substance?
A: 100

Q: And the IC50 [4]?
A: 44.5 µg/mL

Q: And the IC80 [4]?
A: > 50 µg/mL

Q: And the MPI [4]?
A: 56

Q: And the IC50 [6]?
A: 0.095 µg/mL

Q: What about the IC80 [6] of the same substance?
A: 0.641 µg/mL

Q: And the MPI [6]?
A: 100

Q: What about the IC50 [7] of the same substance?
A: 2.77 µg/mL

Q: And the IC80 [7]?
A: 23.9 µg/mL

Q: And the MPI [7]?
A: 90

Q: What about the IC50 [8] of the same substance?
A: 0.222 µg/mL

Q: And the IC80 [8]?
A: 0.57 µg/mL

Q: What about the MPI [8] of the same substance?
A: 100

Q: What about the IC50 [9] of the same substance?
A: 0.05 µg/mL

Q: What about the IC80 [9] of the same substance?
A: 0.137 µg/mL

Q: What about the MPI [9] of the same substance?
A: 100

Q: What about the IC50 [12] of the same substance?
A: > 50 µg/mL

Q: What about the IC80 [12] of the same substance?
A: > 50 µg/mL

Q: What about the MPI [12] of the same substance?
A: 18

Q: And the IC50 [13]?
A: 0.266 µg/mL

Q: What about the IC80 [13] of the same substance?
A: 1.62 µg/mL

Q: And the MPI [13]?
A: 100

Q: What about the IC50 [14] of the same substance?
A: 0.347 µg/mL

Q: And the IC80 [14]?
A: 1.11 µg/mL

Q: And the MPI [14]?
A: 100

Q: And the IC50 [15]?
A: > 50 µg/mL

Q: What about the IC80 [15] of the same substance?
A: > 50 µg/mL

Q: And the MPI [15]?
A: 43

Q: And the IC50 [16]?
A: 0.289 µg/mL

Q: And the IC80 [16]?
A: 1.26 µg/mL

Q: And the MPI [16]?
A: 100

Q: And the IC50 [30]?
A: 0.02 µg/mL

Q: And the IC80 [30]?
A: 0.047 µg/mL

Q: And the MPI [30]?
A: 100

Q: What about the IC50 [31] of the same substance?
A: > 50 µg/mL

Q: And the IC80 [31]?
A: > 50 µg/mL

Q: What about the MPI [31] of the same substance?
A: 15

Q: What about the IC50 [32] of the same substance?
A: 0.627 µg/mL

Q: And the IC80 [32]?
A: 1.79 µg/mL

Q: And the MPI [32]?
A: 100

Q: And the IC50 [33]?
A: > 50 µg/mL

Q: And the IC80 [33]?
A: > 50 µg/mL

Q: What about the MPI [33] of the same substance?
A: 33

Q: What about the IC50 [35] of the same substance?
A: 0.014 µg/mL

Q: And the IC80 [35]?
A: 0.101 µg/mL

Q: What about the MPI [35] of the same substance?
A: 100

From US20230002480A1
